Each block holds one binder with its values, some of them ahead of it.
What was measured:
[1] = molecular target: T1, EGFR on EGFR-positive tumor cell lines (UniProt P00533 25-1210, limits assumed); assay: flow cytometry, HCT116 cells
T1 construct: whole, on cells; The cell line is named under assay or readout; also called EGFR+ cell lines

EGFR-Fc = molecular target: T2, EGFR-Fc (UniProt P00533 25-645); assay: ELISA, EGFR-Fc
T2 construct: also called purified EGFR-Fc; not shown: Fc part

[2] = molecular target: T1, EGFR on EGFR-positive tumor cell lines; assay: flow cytometry, Colo205 cells
[3] = molecular target: fibroblast activation protein (FAP) on transfected HT1080 cells (UniProt Q12884 1-760, limits assumed); assay: cell-based or functional assay

B3: anti-EGFR IgG HC-scTRAIL3-FAVSGAA (other)
heavy: ASDYKDDDDKGAEVQLVESGGGLVQPGGSLRLSCAASGFSLTNYGVHWVRQAPGKGLEWLGVIWSGGNTDYNTPFTSRFTISRDNSKNTLYLQMNSLRAEDTAVYYCARALTYYDYEFAYWGQGTTVTVSSASTKGPSVFPLAPSSKSTSGGTAALGCLVKDYFPEPVTVSWNSGALTSGVHTFPAVLQSSGLYSLSSVVTVPSSSLGTQTYICNVNHKPSNTKVDKKVEPKSCDKTHTCPPCPAPPVAGPSVFLFPPKPKDTLMISRTPEVTCVVVDVSHEDPEVKFNWYVDGVEVHNAKTKPREEQYNSTYRVVSVLTVLHQDWLNGKEYKCKVSNKGLPSSIEKTISKAKGQPREPQVYTLPPSRDELTKNQVSLTCLVKGFYPSDIAVEWESNGQPENNYKTTPPVLDSDGSFFLYSKLTVDKSRWQQGNVFSCSVMHEALHNHYTQKSLSLSPGKAAGNGTSNGTSEFGGAAAHITGTRGRSNTLSSPNSKNEKALGRKINSWESSRSGHSFLSNLHLRNGELVIHEKGFYYIYSQTYFRFQEEIKENTKNDKQMVQYIYKYTSYPDPILLMKSARNSCWSKDAEYGLYSIYQGGIFELKENDRIFVSVTNEHLIDMDHEASFFGAFAVSGAAAHITGTRGRSNTLSSPNSKNEKALGRKINSWESSRSGHSFLSNLHLRNGELVIHEKGFYYIYSQTYFRFQEEIKENTKNDKQMVQYIYKYTSYPDPILLMKSARNSCWSKDAEYGLYSIYQGGIFELKENDRIFVSVTNEHLIDMDHEASFFGAFAVSGAAAHITGTRGRSNTLSSPNSKNEKALGRKINSWESSRSGHSFLSNLHLRNGELVIHEKGFYYIYSQTYFRFQEEIKENTKNDKQMVQYIYKYTSYPDPILLMKSARNSCWSKDAEYGLYSIYQGGIFELKENDRIFVSVTNEHLIDMDHEASFFGAFAVS
light: DIQLTQSPSFLSASVGDRVTITCRASQSIGTNIHWYQQKPGKAPKLLIKYASESISGVPSRFSGSGSGTEFTLTISSLQPEDFATYYCQQNNNWPTTFGAGTKLEIKRTVAAPSVFIFPPSDEQLKSGTASVVCLLNNFYPREAKVQWKVDNALQSGNSQESVTEQDSKDSTYSLSSTLTLSKADYEKHKVYACEVTHQGLSSPVTKSFNRGEC
notes: scTRAIL3-FAVSGAA at the C-terminus of the heavy chain; also called IgG-heavy chain (HC)-scTRAIL3
- EC50 [1]: 0.118 nM
- EC50 (EGFR-Fc): 0.343 nM
- EC50 [2]: 0.081 nM

B4: Db anti-FAP-Glyco-scTRAIL3-FAVSGAA (other)
chain: LEASDYKDDDDKGTGQVQLVQSGAEVKKPGASVKVSCKASGYTFTENIIHWVRQAPGQGLEWMGWFHPGSGSIKYNEKFKDRVTMTADTSTSTVYMELSSLRSEDTAVYYCARHGGTGRGAMDYWGQGTLVTVSSGGGGSDIQMTQSPSSLSASVGDRVTITCRASKSVSTSAYSYMHWYQQKPGKAPKLLIYLASNLESGVPSRFSGSGSGTDFTLTISSLQPEDFATYYCQHSRELPYTFGQGTKLEIKRAAAGNGTSNGTSEFGGAAAHITGTRGRSNTLSSPNSKNEKALGRKINSWESSRSGHSFLSNLHLRNGELVIHEKGFYYIYSQTYFRFQEEIKENTKNDKQMVQYIYKYTSYPDPILLMKSARNSCWSKDAEYGLYSIYQGGIFELKENDRIFVSVTNEHLIDMDHEASFFGAFAVSGAAAHITGTRGRSNTLSSPNSKNEKALGRKINSWESSRSGHSFLSNLHLRNGELVIHEKGFYYIYSQTYFRFQEEIKENTKNDKQMVQYIYKYTSYPDPILLMKSARNSCWSKDAEYGLYSIYQGGIFELKENDRIFVSVTNEHLIDMDHEASFFGAFAVSGAAAHITGTRGRSNTLSSPNSKNEKALGRKINSWESSRSGHSFLSNLHLRNGELVIHEKGFYYIYSQTYFRFQEEIKENTKNDKQMVQYIYKYTSYPDPILLMKSARNSCWSKDAEYGLYSIYQGGIFELKENDRIFVSVTNEHLIDMDHEASFFGAFAVS
modifications: 16 aa peptide linker with two N-glycosylation sites
- EC50 of cytotoxicity on HT1080 FAP+ cells, competing with excess anti-FAP IgG [3]: 0.04 nM
- EC50 of cytotoxicity on HT1080 FAP+ cells, with bortezomib, competing conditions [3]: 0.0041 nM
- EC50 of cytotoxicity on HT1080 FAP+ cells, with bortezomib, non-competing conditions [3]: 0.002 nM
- EC50 of cytotoxicity on HT1080 FAP+ cells, without αFAP IgG [3]: 0.029 nM

The remaining lines, values ahead:

- EC50 [1]: 0.181 nM
- EC50 (EGFR-Fc): 0.46 nM
- EC50 [2]: 0.148 nM
B1: anti-EGFR IgG LC-scTRAIL3-FAVSGAA (other)
heavy: ASDYKDDDDKGAEVQLVESGGGLVQPGGSLRLSCAASGFSLTNYGVHWVRQAPGKGLEWLGVIWSGGNTDYNTPFTSRFTISRDNSKNTLYLQMNSLRAEDTAVYYCARALTYYDYEFAYWGQGTTVTVSSASTKGPSVFPLAPSSKSTSGGTAALGCLVKDYFPEPVTVSWNSGALTSGVHTFPAVLQSSGLYSLSSVVTVPSSSLGTQTYICNVNHKPSNTKVDKKVEPKSCDKTHTCPPCPAPPVAGPSVFLFPPKPKDTLMISRTPEVTCVVVDVSHEDPEVKFNWYVDGVEVHNAKTKPREEQYNSTYRVVSVLTVLHQDWLNGKEYKCKVSNKGLPSSIEKTISKAKGQPREPQVYTLPPSRDELTKNQVSLTCLVKGFYPSDIAVEWESNGQPENNYKTTPPVLDSDGSFFLYSKLTVDKSRWQQGNVFSCSVMHEALHNHYTQKSLSLSPGK
light: DIQLTQSPSFLSASVGDRVTITCRASQSIGTNIHWYQQKPGKAPKLLIKYASESISGVPSRFSGSGSGTEFTLTISSLQPEDFATYYCQQNNNWPTTFGAGTKLEIKRTVAAPSVFIFPPSDEQLKSGTASVVCLLNNFYPREAKVQWKVDNALQSGNSQESVTEQDSKDSTYSLSSTLTLSKADYEKHKVYACEVTHQGLSSPVTKSFNRGECAAGNGTSNGTSEFGGAAAHITGTRGRSNTLSSPNSKNEKALGRKINSWESSRSGHSFLSNLHLRNGELVIHEKGFYYIYSQTYFRFQEEIKENTKNDKQMVQYIYKYTSYPDPILLMKSARNSCWSKDAEYGLYSIYQGGIFELKENDRIFVSVTNEHLIDMDHEASFFGAFAVSGAAAHITGTRGRSNTLSSPNSKNEKALGRKINSWESSRSGHSFLSNLHLRNGELVIHEKGFYYIYSQTYFRFQEEIKENTKNDKQMVQYIYKYTSYPDPILLMKSARNSCWSKDAEYGLYSIYQGGIFELKENDRIFVSVTNEHLIDMDHEASFFGAFAVSGAAAHITGTRGRSNTLSSPNSKNEKALGRKINSWESSRSGHSFLSNLHLRNGELVIHEKGFYYIYSQTYFRFQEEIKENTKNDKQMVQYIYKYTSYPDPILLMKSARNSCWSKDAEYGLYSIYQGGIFELKENDRIFVSVTNEHLIDMDHEASFFGAFAVS
notes: scTRAIL3-FAVSGAA at the C-terminus of the kappa light chain through a 15 aa peptide with two N-glycosylation sites; also called IgG-light chain (LC)-scTRAIL3

- EC50 [1]: 0.091 nM
- EC50 (EGFR-Fc): 0.315 nM
- EC50 [2]: 0.146 nM
B2: anti-EGFR IgG LC/HC-scTRAIL3-FAVSGAA (other)
heavy: B3 heavy
light: B1 light
notes: scTRAIL3-FAVSGAA on both light and heavy chains (tetrameric form)
